The source of these data is the supplement of paper PMC10126150.

The data set deals with ATP. Put plainly: switch fluorescence ratio, 500 uM ATP over buffer (Cy3 cluster intensity, sum of 5 cycles each) (fold (ratio)); higher = stronger signal-on switching upon ATP binding; sequences stand for … in TCGTCGGCAGCGTCAGATGTGTATAAGAGACAGTTTTTTTTTTTTTTTTTTTTTTTTT…TC. Conditions: aptamer strand: ATP DNA aptamer (quencher-CACCTGGGGGAGTATTGCGGAGGAAGG + anchor), 100 nM annealed; ATP concentration: 500 uM. The essentials:
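Between each of five buffer/ATP cycles, the flow-cell was stripped with NaOH and re-annealed. Each cycle imaged Cy3-labelled switching-strand clusters, annealed to 100 nM quencher-labelled ATP aptamer on a modified Illumina MiSeq flow-cell, first in selection buffer and then after 15 min with 500 uM ATP at 22 °C. The fluorescence ratio is summed target-cycle over summed buffer-cycle Cy3 intensity per cluster, averaged per switch-domain sequence, with clusters outside 100-1000 RFU excluded.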

± gives the standard deviation of the averaged measurements.
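Further: ATP exposure 15 min at 22 °C before imaging.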

With ATGGAAGTG, the switch fluorescence ratio was 1.001 ± 0.0015.

On to ATGGAATAT, for which the switch fluorescence ratio amounted to 0.969 ± 0.038.

With ATGGACATAC, the switch fluorescence ratio came out at 1.22 ± 0.098.

For ATGGACTCCT, the switch fluorescence ratio is 1.04 ± 0.044.

As to ATGGAGCAGT, the switch fluorescence ratio amounted to 1.6 ± 0.019.

Turning to ATGGAGGCGG, the switch fluorescence ratio came to 1.04 ± 0.04.

Regarding ATGGAGGGGG, the switch fluorescence ratio was 1.02 ± 0.047.

In the case of ATGGATAAGC, the switch fluorescence ratio was 0.997 ± 0.011.

ATGGATAATG: the switch fluorescence ratio was 0.977 ± 0.054.

ATGGATAATT: the switch fluorescence ratio worked out at 1.04 ± 0.011.

With ATGGATTGAT, the switch fluorescence ratio came to 0.9621 ± 0.0051.

For ATGGATTTAT, the switch fluorescence ratio came to 0.992 ± 0.037.

For ATGGCACAAT, the switch fluorescence ratio came to 1.02 ± 0.067.

For ATGGCCGATA, the switch fluorescence ratio was 0.9537 ± 0.0027.

For the sequence ATGGCCGGTG, the switch fluorescence ratio came out at 1.006 ± 0.004.

As to ATGGCCTTAG, the switch fluorescence ratio came out at 0.9931 ± 0.0094.

With ATGGCTTGTA, the switch fluorescence ratio amounted to 0.999 ± 0.01.

For the sequence ATGGGAAACT, the switch fluorescence ratio was found to be 1.012 ± 0.0074.

ATGGGAATAC: the switch fluorescence ratio came out at 2.59 ± 0.28.

On to ATGGGACCGT, for which the switch fluorescence ratio worked out at 1.01 ± 0.056.

For the sequence ATGGGACGAT, the switch fluorescence ratio came to 0.995 ± 0.026.

As to ATGGGATGGG, the switch fluorescence ratio was 1 ± 0.025.

With ATGGGCAACT, the switch fluorescence ratio was 0.99 ± 0.024.

As for ATGGGCACGG, the switch fluorescence ratio is 0.99 ± 0.025.

Turning to ATGGGCCGAG, the switch fluorescence ratio amounted to 0.989 ± 0.04.

As to ATGGGCCTGG, the switch fluorescence ratio came to 0.9792 ± 0.0094.

Regarding ATGGGCGTGG, the switch fluorescence ratio stood at 1 ± 0.06.

ATGGGCTGGA: the switch fluorescence ratio was determined as 1.04 ± 0.015.

As for ATGGGGCCAA, the switch fluorescence ratio was found to be 1.03 ± 0.031.

For ATGGGGCCTG, the switch fluorescence ratio turned out to be 0.9828 ± 0.0078.

For the sequence ATGGGGCTGA, the switch fluorescence ratio amounted to 0.993 ± 0.029.

Turning to ATGGGGCTTT, the switch fluorescence ratio was 1.01 ± 0.013.

ATGGGGGCCG: the switch fluorescence ratio is 1.01 ± 0.039.

In the case of ATGGGGGCTT, the switch fluorescence ratio stood at 1.02 ± 0.047.

On to ATGGGGGGCC, for which the switch fluorescence ratio is 0.995 ± 0.026.

As for ATGGGGGTTC, the switch fluorescence ratio came to 0.992 ± 0.023.

ATGGGGGTTG: the switch fluorescence ratio amounted to 0.999 ± 0.018.

For ATGGGGTCAG, the switch fluorescence ratio is 0.993 ± 0.021.

Turning to ATGGGGTTGG, the switch fluorescence ratio is 1 ± 0.049.

Take ATGGGGTTTT: the switch fluorescence ratio worked out at 1.01 ± 0.02.

Turning to ATGGGTAGAG, the switch fluorescence ratio came out at 1 ± 0.022.

Take ATGGGTATGT: the switch fluorescence ratio stood at 1.01 ± 0.043.

For the sequence ATGGGTCACG, the switch fluorescence ratio came out at 0.987 ± 0.012.

In the case of ATGGGTCAGT, the switch fluorescence ratio came out at 0.9872 ± 0.0044.

For ATGGGTCGGA, the switch fluorescence ratio turned out to be 1.01 ± 0.053.

In the case of ATGGGTCTAT, the switch fluorescence ratio is 1 ± 0.012.

Regarding ATGGGTCTT, the switch fluorescence ratio was found to be 1.01 ± 0.023.

As to ATGGGTGGTT, the switch fluorescence ratio came out at 0.995 ± 0.032.

On to ATGGGTGTCG, for which the switch fluorescence ratio was 1.05 ± 0.015.

As for ATGGGTTCGC, the switch fluorescence ratio amounted to 0.976 ± 0.035.

Consider ATGGGTTCTG, for which the switch fluorescence ratio was 0.999 ± 0.017.

Consider ATGGTAAAAA, for which the switch fluorescence ratio is 1.05 ± 0.1.

In the case of ATGGTAAACC, the switch fluorescence ratio amounted to 1.16 ± 0.066.

As for ATGGTACCCT, the switch fluorescence ratio was determined as 1.038 ± 0.0052.

For ATGGTACCGT, the switch fluorescence ratio worked out at 1.02 ± 0.014.

On to ATGGTAGGGT, for which the switch fluorescence ratio is 1.01 ± 0.018.

With ATGGTCAGAT, the switch fluorescence ratio was 0.994 ± 0.027.

In the case of ATGGTCAGGC, the switch fluorescence ratio was found to be 0.973 ± 0.019.

ATGGTCATGT: the switch fluorescence ratio was 0.9943 ± 0.0072.

With ATGGTCCATG, the switch fluorescence ratio is 0.995 ± 0.022.

Regarding ATGGTCCGGT, the switch fluorescence ratio worked out at 0.988 ± 0.015.

Regarding ATGGTCTGGG, the switch fluorescence ratio is 0.971 ± 0.011.

Regarding ATGGTGCAGG, the switch fluorescence ratio worked out at 1.06 ± 0.011.

For ATGGTGGAGG, the switch fluorescence ratio stood at 1.01 ± 0.024.

On to ATGGTGGCAT, for which the switch fluorescence ratio was 1.01 ± 0.012.

As to ATGGTGGGGC, the switch fluorescence ratio was 0.979 ± 0.047.

In the case of ATGGTGTCTT, the switch fluorescence ratio was determined as 0.961 ± 0.023.
